What follows are binders tested against T1, T cell surface CD3 (human, UniProt P07766 23-207) (assay: flow cytometry on human CD3+ T cells).
T1 construct: whole, on cells
Experimental: Human PBMCs (peripheral blood mononuclear cells) were sorted for CD3⁺ T cells using CD3 magnetic beads (Miltenyi, Cat. No. 130-097-043). The cryopreserved PBMCs were thawed, and washed by centrifugation twice for counting. The running buffer (MACS, Cat. No. 130-091-221) was added at a ratio of 80 μL per 10⁷ cells, and the CD3 magnetic beads were added at a ratio of 20 μL CD3 magnetic beads per 10⁷ cells. The mixture was mixed well and incubated at 4° C. for 15 min. The running buffer was added at a ratio of 1-2 mL per 10⁷ cells for washing the cells. The mixture was centrifuged, the supernatant was discarded, and 500 μL of running buffer was added to resuspend the cell pellet. The LS sorting column (Miltenyi, Cat. No. 130-042-401) was placed on the MidiMACS Starting Kit (LS) magnetic rack (Miltenyi, Cat. No. 130-091-051). After rinsing, the cell suspension was added and washed thrice. The LS sorting column was removed from the magnetic rack and placed on a clean centrifuge tube and 5 mL buffer was added to collect the sorted CD3⁺ T cells.
After counting, the CD3⁺ T cells were adjusted to a cell density of 1×10⁶-2×10⁶ cells/mL using running buffer, and seeded in a 96-well U-bottom cell culture plate (Costar, Cat. No. 3799) at 50 μL per well. Different concentrations of the anti-GPRC5D/anti-CD3 bispecific antibodies were prepared using running buffer. The highest concentration of the antibodies was 200 nM, and the antibodies were serially diluted 5-fold to obtain a total of 10 concentration gradients. The antibodies at different concentrations were added to the 96-well cell culture plate described above at 50 μL per well, mixed well and incubated at 4° C. for 1 h. The cells were washed with pre-cooled running buffer (MACS, Cat. No. 130-091-221), and then the supernatant was discarded. Pre-cooled PE-conjugated goat anti-human IgG Fcγ antibody (Jackson Immuno Research, Cat. No. 109-116-170) was added, and the cells were resuspended at 100 μL/well. The mixture was mixed well and incubated at 4° C. for 30 min. […]

T1 sequence (P07766 23-207): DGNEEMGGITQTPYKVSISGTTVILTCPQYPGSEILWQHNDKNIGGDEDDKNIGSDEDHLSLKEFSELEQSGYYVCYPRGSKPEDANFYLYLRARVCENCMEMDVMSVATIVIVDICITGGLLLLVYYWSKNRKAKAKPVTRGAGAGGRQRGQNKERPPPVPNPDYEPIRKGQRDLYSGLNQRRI

Row | Top(MFI) | Binder
1 | 54700 | GC35 (bispecific antibody, human IgG1, kappa, L234A L235A, also called anti-GPRC5D/anti-CD3 bispecific antibody GC35) heavy: EVQLVQSGAEVVKPGASVKMSCKASGYTFTNYVMHWVKQAPGQGLEWMGYFNPYNDGTNYNEKFKGRVTLTSDTSANTAYMELSSLRSEDTAVYYCARGGVRRYFDVWGQGTTVTVSSASTKGPSVFPLAPSSKSTSGGTAALGCLVKDYFPEPVTVSWNSGALTSGVHTFPAVLQSSGLYSLSSVVTVPSSSLGTQTYICNVNHKPSNTKVDKKVEPKSCDKTHTCPPCPAPEAAGGPSVFLFPPKPKDTLMISRTPEVTCVVVDVSHEDPEVKFNWYVDGVEVHNAKTKPREEQYNSTYRVVSVLTVLHQDWLNGKEYKCKVSNKALAAPIEKTISKAKGQPREPQVCTLPPSREEMTKNQVSLSCAVKGFYPSDIAVEWESNGQPENNYKTTPPVLDSDGSFFLVSKLTVDKSRWQQGNVFSCSVMHEALHNHYTQKSLSLSPGK light: DIQMTQSPSSLSASVGDRVTITCRASQDIGSNLNWLQLGPGGAIKRLIYATFSLDSGVPSRFSGSRSGSDYTLTISSLQPEDFVDYYCQQYANFPPTFGGGTKVEIKRTVAAPSVFIFPPSDEQLKSGTASVVCLLNNFYPREAKVQWKVDNALQSGNSQESVTEQDSKDSTYSLSSTLTLSKADYEKHKVYACEVTHQGLSSPVTKSFNRGEC scFv: ELVVTQEPSLTTSPGGTVTLTCRSSTGAVTTSNYANWVQQKPGQAPRGLIGGTNKRAPGTPARFSGSLLGGKAALTITGVQPEDEAEYYCALWYSNLWVFGGGTKLTVLGGGGSGGGGSGGGGSEVQLVESGGGLVQPGGSLRLSCAASGFTFNTYAMNWVRQAPGKGLEWVARIRSKYNNYATYYADSVKDRFTISRDDSKNTAYLQMNNLKTEDTAMYYCVRHGNFGNSYVSWFAYWGQGTLVTVSSGEPKSSDKTHTCPPCPAPEAAGGPSVFLFPPKPKDTLMISRTPEVTCVVVDVSHEDPEVKFNWYVDGVEVHNAKTKPREEQYNSTYRVVSVLTVLHQDWLNGKEYKCKVSNKALAAPIEKTISKAKGQPREPQVYTLPPCREEMTKNQVSLWCLVKGFYPSDIAVEWESNGQPENNYKTTPPVLDSDGSFFLYSKLTVDKSRWQQGNVFSCSVMHEALHNRYTQKSLSLSPGK
2 | 38000 | GC39 (bispecific antibody, human IgG1, kappa, L234A L235A, also called anti-GPRC5D/anti-CD3 bispecific antibody GC39) heavy: EVQLVESGGGLVQPGGSRRVSCAASGFTFSSFGMHWVRQAPGKGLEWVAYISRGSSTIYYADTVKGRFTISRDNAKNSLYLQMNSLRAEDTAVYYCARSGYGSSSYYFDYWGQGTTVTVSSASTKGPSVFPLAPSSKSTSGGTAALGCLVKDYFPEPVTVSWNSGALTSGVHTFPAVLQSSGLYSLSSVVTVPSSSLGTQTYICNVNHKPSNTKVDKKVEPKSCDKTHTCPPCPAPEAAGGPSVFLFPPKPKDTLMISRTPEVTCVVVDVSHEDPEVKFNWYVDGVEVHNAKTKPREEQYNSTYRVVSVLTVLHQDWLNGKEYKCKVSNKALAAPIEKTISKAKGQPREPQVCTLPPSREEMTKNQVSLSCAVKGFYPSDIAVEWESNGQPENNYKTTPPVLDSDGSFFLVSKLTVDKSRWQQGNVFSCSVMHEALHNHYTQKSLSLSPGK light: EIVLTQSPATLSASPGERATMSCRASSSIRSSYLHWYQQKPGQSPRLWIYSTSNLASGVPARFSGSGSGTDYTLTISSLEPEDAAVYYCQQFSGYPLTFGGGTKVEIKRTVAAPSVFIFPPSDEQLKSGTASVVCLLNNFYPREAKVQWKVDNALQSGNSQESVTEQDSKDSTYSLSSTLTLSKADYEKHKVYACEVTHQGLSSPVTKSFNRGEC scFv: ELVVTQEPSLTTSPGGTVTLTCRSSTGAVTTSNYANWVQQKPGQAPRGLIGGTNKRAPGTPARFSGSLLGGKAALTITGVQPEDEAEYYCALWYSNLWVFGGGTKLTVLGGGGSGGGGSGGGGSEVQLVESGGGLVQPGGSLRLSCAASGFTFNTYAMNWVRQAPGKGLEWVARIRSKYNNYATYYADSVKDRFTISRDDSKNTAYLQMNNLKTEDTAMYYCVRHGNFGNSYVSWFAYWGQGTLVTVSSGEPKSSDKTHTCPPCPAPEAAGGPSVFLFPPKPKDTLMISRTPEVTCVVVDVSHEDPEVKFNWYVDGVEVHNAKTKPREEQYNSTYRVVSVLTVLHQDWLNGKEYKCKVSNKALAAPIEKTISKAKGQPREPQVYTLPPCREEMTKNQVSLWCLVKGFYPSDIAVEWESNGQPENNYKTTPPVLDSDGSFFLYSKLTVDKSRWQQGNVFSCSVMHEALHNRYTQKSLSLSPGK
3 | 155000 | Talquetamab (bispecific antibody, human IgG4 S228P, kappa, lambda, F234A L235A, Four polypeptide chains (anti-GPRC5D-HC/LC, anti-CD3-HC/LC); made in house by in vitro assembly of the two parental monoclonal antibodies with 2-MEA; also called benchmark; BM) heavy 1: not shown light 1: DIQMTQSPSSLSASVGDRVTITCKASQNVATHVGWYQQKPGKAPKRLIYSASYRYSGVPSRFSGSGSGTEFTLTISNLQPEDFATYYCQQYNRYPYTFGQGTKLEIKRTVAAPSVFIFPPSDEQLKSGTASVVCLLNNFYPREAKVQWKVDNALQSGNSQESVTEQDSKDSTYSLSSTLTLSKADYEKHKVYACEVTHQGLSSPVTKSFNRGEC heavy 2: EVQLVESGGGLVQPGGSLRLSCAASGFTFNTYAMNWVRQAPGKGLEWVARIRSKYNNYATYYAASVKGRFTISRDDSKNSLYLQMNSLKTEDTAVYYCARHGNFGNSYVSWFAYWGQGTLVTVSSASTKGPSVFPLAPCSRSTSESTAALGCLVKDYFPEPVTVSWNSGALTSGVHTFPAVLQSSGLYSLSSVVTVPSSSLGTKTYTCNVDHKPSNTKVDKRVESKYGPPCPPCPAPEAAGGPSVFLFPPKPKDTLMISRTPEVTCVVVDVSQEDPEVQFNWYVDGVEVHNAKTKPREEQFNSTYRVVSVLTVLHQDWLNGKEYKCKVSNKGLPSSIEKTISKAKGQPREPQVYTLPPSQEEMTKNQVSLTCLVKGFYPSDIAVEWESNGQPENNYKTTPPVLDSDGSFLLYSKLTVDKSRWQEGNVFSCSVMHEALHNHYTQKSLSLSLGK light 2: QTVVTQEPSLTVSPGGTVTLTCRSSTGAVTTSNYANWVQQKPGQAPRGLIGGTNKRAPGTPARFSGSLLGGKAALTLSGVQPEDEAEYYCALWYSNLWVFGGGTKLTVLGQPKAAPSVTLFPPSSEELQANKATLVCLISDFYPGAVTVAWKADSSPVKAGVETTTPSKQSNNKYAASSYLSLTPEQWKSHRSYSCQVTHEGSTVEKTVAPTECS

Source: patent US20260226168A1 (CHIA TAI TIANQING PHARMACEUTICAL GROUP, published 2026)
